# Test results: patent US20100256332A1, “GLP-1 Fusion Peptides, Their Production and Use” (BIOCOMPATIBLES UK LTD, priority 2007, published 2010)
# B1: GLP-1(7-37)-IP2-RR-GLP2 (peptide)
# chain: HAEGTFTSDVSSYLEGQAAKEFIAWLVKGRGRRDFPEEVAIAEELGRRHADGSFSDEMSTILDNLATRDFINWLIQTKITDKK
# notes: 83 aa fusion peptide
# System: type II diabetic mice (C57BUKs-Lepr db/db)
# Assay: In vivo bioactivity in type II diabetic mice
# Design: species or system mouse
# Details: 5 μg peptide s.c. twice a day, Day 2, 4, 7, 10, overnight fasted
# Method: 11-week-old type II diabetic mice (C57BUKs-Lepr^db/db, Harlan) were treated with 5 μg peptide by subcutaneous injection twice a day at 9 a.m. and 5 p.m. (n=5 per group).
# Blood glucose was measured before (day 0) and after treatment with GLP^CM peptides (Day 2, 4, 7, 10) at 10 a.m. after an overnight fastening period. Data were presented in relation to blood glucose levels measured at day 0.
# Best results were obtained with recombinant SEQ ID No.:6 (CM1) and synthetic SEQ ID No.:8 (CM3). In FIG. 5 (y-axis) the relative effect of the treatment is shown. Blood glucose at day=0 was set to 1. Untreated animals undergo continuous increase in blood glucose level over time, whereas animals treated with inventive peptides display grosso modo a continuous decrease of the blood glucose level over time.
molecule,measurement,value
B1,anti-hyperglycemia effect (blood glucose in relation to day 0),anti-hyperglycemia effect
